Measurements: patent US9539338B2, “Polymer-based protein engineering methods to rationally tune enzyme activity, pH-dependence and stability” (Carnegie Mellon University, priority 2013, dated 2017)
pKi: −log10 of the molar value.

Tests used:
[1] = biological target: T1, Bowman-Birk trypsin-chymotrypsin inhibitor from glycine max (GM) (Glycine max, UniProt P01055); experiment: Inhibitor binding study with Bowman-Birk inhibitor from glycine max; type: biochemical, glycine max (soybean); details: for Apparent Vmax / KM/Vmax: pH 8.0
T1 construct: purchased Sigma Aldrich; bovine pancreas for chymotrypsin
Procedure: FIGS. 24A and B show (A) Substrate/initial velocity plots and (B) secondary plots to determine inhibitor constant for native chymotrypsin with GM in 0.1 M sodium phosphate buffer (pH 8) at 25° C. […]
FIGS. 25A and B show (A) Substrate/initial velocity plots and (B) secondary plots to determine inhibitor constant for chyomtrypsin-pQA200 with GM in 0.1 M sodium phosphate buffer (pH 8) at 25° C. […]
(§1) Enzyme inhibition was assayed by measuring the hydrolytic activities of samples which contained a fixed concentration of protease and varying amounts of inhibitor, including a blank with no inhibitor. Inhibitors and peptide substrate were simultaneously added to the native and conjugate solutions immediately before measuring initial rates. The initial rate of hydrolysis of the peptide substrate was monitored by recording the increase in absorption at 412 nm. To determine dissociation constant of the enzyme-inhibitor complexes (Ki), Vmax app and KM app were determined by non-linear curve fitting (equation for Michaelis-Menten parameters) of plots of initial rate versus substrate concentration using the Enzfitter software. The dissociation constants were calculated from secondary plot of KM app/Vmax app versus initial inhibitor concentration.

[2] = Enzyme stability at 25° C. or 40° C., first order inactivation; type: physicochemical; details: 1 mg enzyme/mL, pH 8.0
Procedure: Native CT and CT conjugates (1 mg enzyme/mL) were dissolved in 0.1 M sodium phosphate buffer (pH 8.0) and incubated in a water bath at either 25° C. or 40° C. At various time points, aliquots were removed and diluted to 0.1 mg enzyme/mL using 0.1 M phosphate buffer (pH 8.0). Residual activity was calculated as the percentage of activity remaining relative to the activity at time zero. Substrate (Suc-AAPF-pNA) concentration was kept constant at 288 μM for each sample and time points.

pepsin = biological target: T2, pepsin (Sus scrofa, UniProt P00791); experiment: Stability to pepsin degradation; type: in vitro ADME, porcine; details: 167 mM HCl, 37° C.
T2 construct: purchased Sigma Aldrich; host or cells: porcine stomach mucosa
T2 sequence (P00791 60-385): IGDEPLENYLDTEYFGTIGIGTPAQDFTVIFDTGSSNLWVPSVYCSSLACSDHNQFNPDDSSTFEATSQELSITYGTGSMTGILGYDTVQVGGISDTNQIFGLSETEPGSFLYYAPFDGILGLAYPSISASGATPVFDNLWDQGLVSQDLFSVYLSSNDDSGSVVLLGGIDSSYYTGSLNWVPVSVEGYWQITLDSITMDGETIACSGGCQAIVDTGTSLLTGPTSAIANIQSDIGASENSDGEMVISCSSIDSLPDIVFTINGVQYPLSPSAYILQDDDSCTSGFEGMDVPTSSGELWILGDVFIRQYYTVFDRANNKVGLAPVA
Procedure: Native CT and CT-conjugates (4 μM) were incubated in 167 mM HCl with 16 nM pepsin at 37° C. in 50 μL aliquots. Samples were retrieved at specified time points and residual activity was measured in 0.1 M sodium phosphate buffer (pH 8.0) at 25° C. with Suc-AAPF-pNA as substrate (288 μM). Each time point was measured in duplicate and residual activity was calculated as the ratio of activity remaining from time zero. As a control, pepsin (16 nM) bioactivity towards Suc-AAPF-pNA was measured at pH 8.0 and no product formation was observed.

aprotinin (AP) = biological target: T3, aprotinin (AP) (Bos taurus, UniProt P00974); experiment: Inhibitor binding study with aprotinin; type: biochemical, Bovine; details: 25° C.; for Apparent Vmax / KM/Vmax: pH 8.0
T3 construct: purchased Sigma Aldrich; host or cells: Nicotiana (tobacco) for aprotinin; bovine pancreas for chymotrypsin
Procedure: Apparent KM and Vmax values were calculated using EnzFitter by Michelis-Menten curve fitting of substrate against initial velocity plots. (B) Secondary plots with calculated apparent KM and Vmax values were used to determine inhibition constants of aprotinin towards native chymotrypsin.
FIGS. 23A and B show (A) Substrate/initial velocity plots and (B) secondary plots to determine inhibitor constant for chymotrypsin-pQA200 with aprotinin in 0.1 M sodium phosphate buffer (pH 8) at 25° C. The procedure used was the same as described above for aprotinin and native chymotrypsin.
as §1

[3] = Thermal stability at 37° C., pH 8.0; type: physicochemical; details: 8 hours incubation at 40 μM, 0.1 M sodium phosphate pH 8.0, 37° C.
Procedure: Native CT and CT-conjugates (40 μM) were dissolved in 0.1 M sodium phosphate buffer (pH 8.0) and incubated in a water bath in 50 μL aliquots at 37° C. At specified time points, aliquots were removed and diluted to 4 μM using 0.1 M sodium phosphate buffer (pH 8.0). Residual activity, measured in 0.1 M sodium phosphate buffer (pH 8.0) at 25° C., was calculated as the ratio of activity remaining relative to the activity at time zero. Substrate (Suc-AAPF-pNA) concentration was kept constant at 288 μM for each sample and time point. Native CT and conjugate activities were measured in duplicate at each time point.

[4] = Stability study: irreversible inactivation at 40° C., pH 7-9, residual activity; type: physicochemical; details: for half-life t1/2: 40 μM enzyme
Procedure: Native CT and the prepared conjugates (1.5 to 2.0 mL of 40.0 μM) were incubated in 100 mM sodium phosphate buffer at different pH's at 40° C. Aliquots (20 μL) were removed and added into sodium phosphate buffer (180 μL, 100 mM, at 0° C.). The residual activity was calculated as a ratio of initial rates of hydrolysis reaction at given incubation time over the initial activity, which monitored spectrophotometrically as described above. Half-lives for enzyme longevity were estimated by non-linear curve fitting (equation for single exponential decay) using Enzfitter.
CT inactivation can occur through unfolding and/or autolysis. The polymer component of the PBPE conjugates may stabilize the enzyme by increasing the energy needed to unfold the protein and also by inhibiting autolysis directly. Since the autolysis reaction of proteases is favored when the enzyme concentration is high, (Yang, Z.; Domach, M.; Auger, R.; Yang, F. X.; Russell, A. J. Enzyme Microb. Technol. 1996, 18, 82-89) stability at relatively high enzyme concentration (40 μM) was investigated. At 40° C. the residual activity of the enzyme was measured as a function of pH and shown in FIG. 8, and the first order rate constant for deactivation and half-life were calculated (Table 5).

**Q.** Which “GM Ki, fold higher than chymotrypsin-pQA198” value ([1]; GM) does the source give for “α-Chymotrypsin (CT) from bovine pancreas (type II) [Native CT]” here?
**A.** ~4 fold

**Q.** And the “Apparent Vmax” value ([1]; GM [I]0 0 mM, 25° C.)?
**A.** 1.10 mM/s

**Q.** What about the KM/Vmax ([1]; GM [I]0 0 µM, 25° C.) of the same substance?
**A.** 71.8 s⁻¹

**Q.** What about the KM/Vmax ([1]; GM [I]0 0.049 µM, 25° C.) of the same substance?
**A.** 90.4 s⁻¹

**Q.** And the KM/Vmax ([1]; GM [I]0 0.098 µM, 25° C.)?
**A.** 102.2 s⁻¹

**Q.** And the KM/Vmax ([1]; GM [I]0 0.147 µM, 25° C.)?
**A.** 150.1 s⁻¹

**Q.** And the KM/Vmax ([1]; GM [I]0 0.196 µM, 25° C.)?
**A.** 159.9 s⁻¹

**Q.** What about the KM/Vmax ([1]; GM [I]0 0.294 µM, 25° C.) of the same substance?
**A.** 188.0 s⁻¹

**Q.** What about the “Apparent Vmax” value ([1]; GM [I]0 0.049 mM, 25° C.) of the same substance?
**A.** 1.05 mM/s

**Q.** What about the “Apparent Vmax” value ([1]; GM [I]0 0.098 mM, 25° C.) of the same substance?
**A.** 1.18 mM/s

**Q.** What about the “Apparent Vmax” value ([1]; GM [I]0 0.147 mM, 25° C.) of the same substance?
**A.** 1.21 mM/s

**Q.** What about the “Apparent Vmax” value ([1]; GM [I]0 0.196 mM, 25° C.) of the same substance?
**A.** 1.23 mM/s

**Q.** And the “Apparent Vmax” value ([1]; GM [I]0 0.294 mM, 25° C.)?
**A.** 1.14 mM/s

**Q.** What about the pKi ([1]; inhibitor Glycine Max, 25° C.) of the same substance?
**A.** 6.76

**Q.** What about the kinact ([2]; 25° C.) of the same substance?
**A.** 0.13 ± 1.2 × 10^−2 days−1

**Q.** What about the t1/2 ([2]; 25° C.) of the same substance?
**A.** 5.43 ± 0.51 days

**Q.** What about the kinact ([2]; 40° C.) of the same substance?
**A.** 6.61 ± 0.47 day⁻¹

**Q.** What about the t1/2 ([2]; 40° C.) of the same substance?
**A.** 0.10 ± 7.5 × 10^−3 days

**Q.** What about the “time after which all activity was lost” value (pepsin) of the same substance?
**A.** 75 min

**Q.** And the “Apparent Vmax” value (aprotinin (AP); aprotinin [I]0 0 mM)?
**A.** 1.13 mM/s

**Q.** What about the KM/Vmax (aprotinin (AP); aprotinin [I]0 0 mM) of the same substance?
**A.** 76.3 s⁻¹

**Q.** What about the “Apparent Vmax” value (aprotinin (AP); aprotinin [I]0 0.098 mM) of the same substance?
**A.** 1.17 mM/s

**Q.** And the KM/Vmax (aprotinin (AP); aprotinin [I]0 0.098 mM)?
**A.** 149.2 s⁻¹

**Q.** What about the “Apparent Vmax” value (aprotinin (AP); aprotinin [I]0 0.196 mM) of the same substance?
**A.** 1.14 mM/s

**Q.** What about the KM/Vmax (aprotinin (AP); aprotinin [I]0 0.196 mM) of the same substance?
**A.** 242.8 s⁻¹

**Q.** What about the “Apparent Vmax” value (aprotinin (AP); aprotinin [I]0 0.294 mM) of the same substance?
**A.** 1.19 mM/s

**Q.** And the KM/Vmax (aprotinin (AP); aprotinin [I]0 0.294 mM)?
**A.** 314.3 s⁻¹

**Q.** And the “Apparent Vmax” value (aprotinin (AP); aprotinin [I]0 0.392 mM)?
**A.** 1.04 mM/s

**Q.** What about the KM/Vmax (aprotinin (AP); aprotinin [I]0 0.392 mM) of the same substance?
**A.** 431.6 s⁻¹

**Q.** What about the “Apparent Vmax” value (aprotinin (AP); aprotinin [I]0 0.490 mM) of the same substance?
**A.** 1.13 mM/s

**Q.** What about the KM/Vmax (aprotinin (AP); aprotinin [I]0 0.490 mM) of the same substance?
**A.** 569.45 s⁻¹

**Q.** And the pKi (aprotinin (AP); inhibitor aprotinin)?
**A.** 7.25

**Q.** What about the activity lost [3] of the same substance?
**A.** lost half of its activity

**Q.** What about the “half-life t1/2” value ([4]; pH 7.0, 40° C.) of the same substance?
**A.** 7.15 ± 0.91 h

**Q.** What about the “half-life t1/2” value ([4]; pH 7.0, 40° C., listed as native enzyme) of the same substance?
**A.** 7.2 h

**Q.** What about the initial activity retained ([4]; pH 7, 40° C., after 6 h) of the same substance?
**A.** 50%

**Q.** And the “half-life t1/2” value ([4]; pH 8.0, 40° C.)?
**A.** 1.95 ± 0.25 h

**Q.** And the “half-life t1/2” value ([4]; pH 9.0, 40° C.)?
**A.** 1.53 ± 0.20 h

**Q.** And the biocatalytic activity lost ([4]; pH 9, 40° C., after 6 h)?
**A.** 70-80%
